Laboratory results taken from US20070020706A1 (UNIVERSITY HOSPITALS OF CLEVELAND, published 2007).

B1: truncated P2X7-j receptor protein (receptor)
chain: MPACCSCSDVFQYETNKVTRIQSMNYGTIKWFFHVIIFSYVCFALVSDKLYQRKEPVISSVHTKVKGIAEVKEEIVENGVKKLVHSVFDTADYTFPLQGNSFFVMTNFLKTEGQEQRLCPEYPTRRTLCSSDRGCKKGWMDPQSKGIQTGRCVVHEGNQKTCEVSAWCPIEAVEEAPRPALLNSAENFTVLIKNNIDFPGHNYTTRNILPGLNITCTFHKTQNPQCPIFRLGDIFRETGDNFSDVAIQIRQVLQGKQC
notes: Untagged P2X7-j, expressed in HEK-293 cells or endogenous in human cancer cell lines; Runs as 42-45 kDa bands; also called P2X7-RTR
B2: full-length human P2X7 receptor (receptor)
chain: MPACCSCSDVFQYETNKVTRIQSMNYGTIKWFFHVIIFSYVCFALVSDKLYQRKEPVISSVHTKVKGIAEVKEEIVENGVKKLVHSVFDTADYTFPLQGNSFFVMTNFLKTEGQEQRLCPEYPTRRTLCSSDRGCKKGWMDPQSKGIQTGRCVVHEGNQKTCEVSAWCPIEAVEEAPRPALLNSAENFTVLIKNNIDFPGHNYTTRNILPGLNITCTFHKTQNPQCPIFRLGDIFRETGDNFSDVAIQGGIMGIEIYWDCNLDRWFHHCHPKYSFRRLDDKTTNVSLYPGYNFRYAKYYKENNVEKRTLIKVFGIRFDILVFGTGGKFDIIQLVVYIGSTLSYFGLAAVFIDFLIDTYSSNCCRSHIYPWCKCCQPCVVNEYYYRKKCESIVEPKPTLKYVSFVDESHIRMVNQQLLGRSLQDVKGQEVPRPAMDFTDLSRLPLALHDTPPIPGQPEEIQLLRKEATPRSRDSPVWCQCGSCLPSQLPESHRCLEELCCRKKPGACITTSELFRKLVLSRHVLQFLLLYQEPLLALDVDSTNSRLRHCAYRCYATWRFGSQDMADFAILPSCCRWRIRKEFPKSEGQYSGFKSPY
notes: Expressed from cDNA in HEK-293 cells or endogenous in human cells and tissues (CaSki, HeLa, cervical tissue); Mostly assayed in cell extracts on immunoblots, where it runs as 65, 75 and 85 kDa forms; also called P2X7-RFL; P2X7-WT

Assays:
Assay in all cases: densitometry of oligomer bands on an immunoblot, HEK293 cells co-expressing P2X7 and P2X7-j
[1] = biological target: B2
[2] = biological target: the molecule itself
[3] = biological target: B1

Binder	relative band density (ratio) [1]	relative band density (ratio) [2]	relative band density (ratio) [3]
B1	15 ratio parts	70 ratio parts	–
B2	–	10 ratio parts	5 ratio parts
